Data set [1] concerns pcGAS. The data set is classed as biochemical, porcine. The settings on record: pH 7.5.
The target in data set [2] is SUMO-HSV-1 peptide AB (herpes simplex virus type 1 (HSV-1)). Nature of the data set: ITC. A general note: In ITC the heat of successive injections is recorded.
For data set [3], the target named is hcGAS (Homo sapiens? (human), UniProt Q8N884 1-522). The data set can be described thus: EMSA; no US1; EMSA: 2.5 uM ISD45, DNA:protein molar ratio 1:0 to 1:32, 0.8% agarose, 40 mM Tris-HCl pH 9.2 running buffer, 110 V, ethidium bromide; binding buffer and temperature not stated (protein stock 20 mM Tris-HCl pH 7.5, 150 mM NaCl, 5 mM DTT). The settings on record: protein: recombinant; tags: N-terminal Flag, C-terminal HA; His6-SUMO removed; blunt.
Chain of hcGAS (Q8N884 whole entry): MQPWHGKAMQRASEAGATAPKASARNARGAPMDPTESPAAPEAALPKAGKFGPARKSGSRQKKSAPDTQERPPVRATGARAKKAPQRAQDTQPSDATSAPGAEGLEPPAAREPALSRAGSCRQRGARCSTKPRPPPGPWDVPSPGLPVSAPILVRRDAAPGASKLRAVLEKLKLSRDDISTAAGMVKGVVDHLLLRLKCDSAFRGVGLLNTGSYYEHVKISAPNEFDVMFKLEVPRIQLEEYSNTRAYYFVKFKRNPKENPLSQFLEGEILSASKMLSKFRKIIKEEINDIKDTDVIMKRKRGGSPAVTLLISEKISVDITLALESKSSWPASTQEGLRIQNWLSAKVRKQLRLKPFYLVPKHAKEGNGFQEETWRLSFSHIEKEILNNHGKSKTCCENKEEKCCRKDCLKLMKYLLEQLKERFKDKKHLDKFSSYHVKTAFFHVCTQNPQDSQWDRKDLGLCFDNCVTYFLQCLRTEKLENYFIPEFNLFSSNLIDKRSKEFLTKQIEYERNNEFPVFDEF

The target of data set [4] is mcGAS (Mus musculus? (mouse), UniProt Q8C6L5 1-507). The data set is described as above. The settings on record: protein: recombinant; tags: N-terminal Flag, C-terminal HA; His6-SUMO removed; chain copies: 2; blunt.
Chain of mcGAS (Q8C6L5 whole entry): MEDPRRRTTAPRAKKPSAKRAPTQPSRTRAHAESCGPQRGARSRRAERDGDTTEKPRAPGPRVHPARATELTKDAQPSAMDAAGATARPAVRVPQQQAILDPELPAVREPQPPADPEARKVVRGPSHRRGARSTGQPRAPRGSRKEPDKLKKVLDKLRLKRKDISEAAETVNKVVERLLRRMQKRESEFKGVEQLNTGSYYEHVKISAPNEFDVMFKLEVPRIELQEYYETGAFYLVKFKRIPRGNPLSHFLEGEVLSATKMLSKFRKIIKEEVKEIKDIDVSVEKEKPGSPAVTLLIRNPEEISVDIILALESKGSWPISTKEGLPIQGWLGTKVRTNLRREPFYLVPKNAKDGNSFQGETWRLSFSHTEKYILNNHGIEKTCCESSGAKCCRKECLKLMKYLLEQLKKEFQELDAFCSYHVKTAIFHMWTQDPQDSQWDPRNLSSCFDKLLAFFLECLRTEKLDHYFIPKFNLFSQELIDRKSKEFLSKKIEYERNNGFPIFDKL
Data set [5] has as its target T1, pcGASNT (Sus scrofa? (porcine), UniProt I3LM39 1-134).
T1 sequence: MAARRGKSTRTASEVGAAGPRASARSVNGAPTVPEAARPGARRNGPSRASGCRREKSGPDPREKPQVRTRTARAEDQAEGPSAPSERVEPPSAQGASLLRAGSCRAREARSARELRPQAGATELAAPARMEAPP
The description is as above. The settings on record: protein: recombinant; tags: Flag/HA double tag vector; His6-SUMO; blunt.

Data set [6] deals with T2, pcGASCT (Sus scrofa? (porcine), UniProt I3LM39 145-495).
T2 sequence: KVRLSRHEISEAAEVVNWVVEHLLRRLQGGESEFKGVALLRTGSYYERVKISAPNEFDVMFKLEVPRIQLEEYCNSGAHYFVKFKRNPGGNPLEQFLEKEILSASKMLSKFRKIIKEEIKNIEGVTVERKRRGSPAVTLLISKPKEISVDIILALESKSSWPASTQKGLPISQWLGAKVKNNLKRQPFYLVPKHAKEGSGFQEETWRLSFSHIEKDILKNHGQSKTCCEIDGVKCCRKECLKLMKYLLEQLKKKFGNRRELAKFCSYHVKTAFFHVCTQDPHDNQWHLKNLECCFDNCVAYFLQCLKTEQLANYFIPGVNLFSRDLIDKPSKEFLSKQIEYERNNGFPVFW
The data set is described as above. The settings on record: protein: recombinant; tags: Flag/HA double tag vector; His6-SUMO; blunt.

Data set [7] has as its target T3, pcGAS (Sus scrofa? (porcine), UniProt I3LM39 1-495).
T3 sequence: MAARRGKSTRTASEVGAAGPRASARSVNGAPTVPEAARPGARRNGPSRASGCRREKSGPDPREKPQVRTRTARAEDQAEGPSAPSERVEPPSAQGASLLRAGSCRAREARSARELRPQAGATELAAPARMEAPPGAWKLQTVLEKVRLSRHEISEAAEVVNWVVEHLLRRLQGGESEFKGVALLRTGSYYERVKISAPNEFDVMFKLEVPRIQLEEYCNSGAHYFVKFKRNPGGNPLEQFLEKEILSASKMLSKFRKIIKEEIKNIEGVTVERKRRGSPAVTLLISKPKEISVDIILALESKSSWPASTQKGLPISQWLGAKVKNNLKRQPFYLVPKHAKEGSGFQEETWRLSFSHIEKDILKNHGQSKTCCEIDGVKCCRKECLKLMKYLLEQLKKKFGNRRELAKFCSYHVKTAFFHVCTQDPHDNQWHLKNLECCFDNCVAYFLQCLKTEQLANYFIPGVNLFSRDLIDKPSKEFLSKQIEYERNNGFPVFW
Described as above. The settings on record: protein: recombinant; tags: N-terminal Flag, C-terminal HA; His6-SUMO removed; blunt.

Data set [8] deals with T4, PRV US1 (pseudorabies virus, UniProt A0AAX7FDV8 1-364).
T4 sequence: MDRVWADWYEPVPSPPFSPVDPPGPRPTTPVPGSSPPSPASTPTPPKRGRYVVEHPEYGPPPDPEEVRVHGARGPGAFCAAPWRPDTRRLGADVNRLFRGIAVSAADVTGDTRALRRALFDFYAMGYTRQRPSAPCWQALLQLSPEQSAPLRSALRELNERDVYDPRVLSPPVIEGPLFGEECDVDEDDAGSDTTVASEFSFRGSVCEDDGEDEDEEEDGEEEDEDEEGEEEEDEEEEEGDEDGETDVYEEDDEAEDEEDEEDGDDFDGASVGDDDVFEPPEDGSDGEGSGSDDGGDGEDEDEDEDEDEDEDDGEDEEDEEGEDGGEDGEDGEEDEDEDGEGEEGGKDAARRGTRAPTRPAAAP
The data set can be described thus: EMSA; molar ratio 0-16; EMSA: 2.5 uM ISD45, DNA:protein molar ratio 1:0 to 1:32, 0.8% agarose, 40 mM Tris-HCl pH 9.2 running buffer, 110 V, ethidium bromide; binding buffer and temperature not stated (protein stock 20 mM Tris-HCl pH 7.5, 150 mM NaCl, 5 mM DTT). The settings on record: protein: recombinant; tags: His6-SUMO removed; blunt.

As for AWKLQT [random peptide], in data set [1], the “effect on cGAS enzymatic activity / cGAMP synthesis” value is “neither peptide A nor peptide B, nor the random peptide inhibited cGAMP synthesis”.
Take “pcGAS^CT (C-terminus, catalytic domain of porcine cGAS) (domain or fragment)”: in data set [2], the dissociation constant Kd (as a rule, the concentration at which binding is half-saturated) was found to be 2.85 µM.
The same measure, in the same setting: as for “hcGAS^CT (C-terminus, catalytic domain of human cGAS) (domain or fragment)”, the figure is 15.7 µM.

B1: ISD45 (dsDNA)
DNA 1: TACAGATCTACTAGTGATCTATGACTGATCTGTACATGATCTACA
DNA 2: TGTAGATCATGTACAGATCAGTCATAGATCACTAGTAGATCTGTA
Consider B1, for which the binding result in data set [3] was “binds”; in data set [4] it was “binds”; in data set [5], “binds”; in data set [6] it was “binds”; in data set [7] it was “binds”; in data set [8] it was “no binding”.

The values are drawn from article PMC12604781 (PLOS Pathogens, 2025).
